Test results taken from the DeepSol protein solubility set.

assay: soluble on expression in E. coli; label from the status in PepcDB or PDB records

Question: For “MENSIEAYLADSREKVTLGTVVDCFKGKAVSSKVVPGDVGLINLSDMGTLGIQYHQLRTFQMDRRQLLRYLLEDGDVLIASKGTLKKVCVFHKQNRDVVASSNITVLRPQKLLRGYYIKFFLDSPIGQALLDVADHGKDVINLSTKELLDIPIPVIPLVKQDYLINHYLRGLTDYHRKLNRAEQEWEYIQNEIQKGLG”, which “soluble on expression in E. coli” value is on record?
Answer: soluble

Question: Which “soluble on expression in E. coli” value does the source give for “MTNSQTVSLIGPTQMAPQSTPPPPVNELWFIDAQAMFQNYANLRSFSKSNANEINTTIGGFVFGRKARKQVIHVLFAYAEDLTESNRQFLESSLSADIELVGNLNIDGQSQILPGGQFTLQLTSRMLENRSISEFLDMNVMFNNEHVLMEGASCVSRVGYEWSLRAGREQEDVKSAAERLSMASFRFTYLNAEHGLVIREQKPEAAQQKYLDKFSKGAVPYKDVIEFTAMQSLTRDTSNDTEDQKLVPTVKVTKDNKHFTRLVTIGEVVFPAFFGDSSLDLYKRSREAFNRRANNTMMVTVNGIRAGRGVTTTTSATYLPPGWVSLLHLQLPTKWTDNEQRNYRIRLHKLFNLPSSKPVLRLSQALALHSESARLTNKKLIREPHLSITNYQPVGEITTVNGPYNYHHYMQDGIDDSGWGCAYRSFQTIWSWFILNGYTDKPVPSHREIQQALVDIQDKQAKFVGSRQWIGSTEISFVLNELLKLECRFIATNSGAEVVERVRELARHFETSGTPVMIGGNMLAHTILGVDFNDTTGETKFLVLDPHYTGSEDIKTITSKGWCAWKPASFWSKDHFYNMVLPQPPSDAI” here?
Answer: not soluble

Question: With “MKRLSFLTLRPRHLSFLTLQRRNALRDALRHRSAPRRAFRIGRRASRTACDAERRTIVRLSFRALQPRRLSLLTLQRRNALRDALRHRSAPRRVFRIGRRASRTACDAQRCTIVRLSFRALQPRRLSFLTLQRRSALRDALHHKSAPRCTFKIGRGASRTACDAERRTIVRLSFRALQPRRLSFLTLQRRNALGDALRHKSAPRCTFKIGREASRTACDAERRTIVRLSFRALQPRRLSFLTLQRRNALRDALRHKSAPRRAFRIGRRASRTACDAERRTIVSQISLNALEHHHHHH” as the sequence, how does the “soluble on expression in E. coli” value read?
Answer: not soluble

Question: Which “soluble on expression in E. coli” value does the source give for “MSLDLNQIKAVVFDLEGTLLDRVKSREKFIEEQYERFHDYLIHVQLADFKKAFIELDDDEDNDKPDLYKEIIKRFHVDRLTWKDLFNDFEMHFYRYVFPYYDTLYTLEKLSQKGFQIGVIANGKSKIKQFRLHSLGLMHVINYLSTSETVGFRKPHPKIFEDMIDQLGVLPEQIMYVGDDALNDVAPARAMGMVSVWYKQEDAEIEPLEEEVDFTITTVEELLTILPIKNDNKGENYGSIYEGHHHHHH” here?
Answer: soluble

Question: With “MKSRLPFRYLEPTFCAGLLDDPVLLVNVRPLGRSILVDCGQIHHLAKRVLKSIDAVFVSHAHMDHFMGLDTLVRHIHVSPRTVELFGPPGIARKVAAKLAGYDWNLTESYWCTFRVSEVHPERIVRFTFPGSEGFPCLPEEETTREGTEIFRNDFLAVDADLCDHNTLPTLVFRITERPTFWIDEAKVDQEGLVPGEWLRELKHRFYRGRLDGKTITVPVRTAGDTVAQRIREGRELFEAIRRSQEPASIGYLTDIGAGDTNLATVRRLLAGVTLLACECSFLAADVAKARTSHHLCTADVSALAREIRPGWLLPMHLSKSYNTKGHLLYRELTLAPETRLIRLPEHLTPRPLLPGEFPGLWKIAEMAGDPNSLEHHHHHH” as the sequence, how does the “soluble on expression in E. coli” value read?
Answer: not soluble

Question: Which “soluble on expression in E. coli” value does the source give for “VADVVPLDANNRILVHQGLMRIRAGRARPGLRAILEVARREPARITSTDLGFILGPRLNAAGRLDDMSLGIECLLCDDPTRAREMAVQLDELNQDRKSIEQGMQREALAQLKDLPMESMPFGLCLFDAEWHQGVIGIL” here?
Answer: not soluble

Question: Which “soluble on expression in E. coli” value does the source give for “MLNTILVALDGSEIAERVIQTLGYLVLSPNTNVILCHVFPAPESEIELPADRPQPDLPNFSYFNIDKQMQSYQERLSVKSELELVMGDPADEIIRLANIYKADLVVIGSRGLTGMNRIVQGSVSTQVMEAANCSVLVVKPARN” here?
Answer: not soluble

Question: For “MKKLITALSLVLVSYASMAAQECSLDFVKSAPNSRYLYSDLGVVTDLKTGLTWMRCPVGMTWDMAQKACSGEAQKVTWQNALLTAEQIRNASGNHVLHNFADKKQWRLPNIKELVTLTERACFHPSMNGTAFESAYSLETGDLGSYIWSNTPGTDARQIMTFESVNGDVIGYSPEANQFSVLLVTDEDLEHHHHHH”, which “soluble on expression in E. coli” value is on record?
Answer: not soluble

Question: With “MGSYIQMSGIGSRLRQERERLGLSQKVFGEIGGVEANAQGKYESGDRAPKADYLSRVAAKGVDVLYVLTGSRIPIQSGGLSQTEEKVLDCYRALFKEDQDAICRLTSTLAELSASQGERRKAQVRE” as the sequence, how does the “soluble on expression in E. coli” value read?
Answer: soluble

Question: With “MQPLERSLTGAVGAALAAAGLRSRSGLEKVVLTGLGAGLIAVAARGQNPLATALKIEQNDEGETVVRDAVTIGKPAEQLYAVWRDLPGLPLLMTHLRSVEVLDDKRSRWTVEAPAPLGTVSWEAELTADEPGKRIAWRSLPGARIENSGEVLFRPAPGARGTEVVVRLTYRPPGGSAGAVIARMFNQEPSQQLRDDLMRFKREQELGLEHHHHHH” as the sequence, how does the “soluble on expression in E. coli” value read?
Answer: not soluble

Question: With “MSLTPSMRRTRIVCISDTHNCQVKLPEGDVLIHAGDLTNQGSHAELAKTVAWLEKQDFEAKIVIAGNHDITLDPEFYAEHGLYFHNKNPQSHDECLRLFTSSPSITYLSHGSANISLTSPSGPRTHFKVFGSPYSPRHGLWAFYYDAPQNPSNWSDLTSLWESIPLDTDIVVTHTPPRMHCDETDERRATGCEALRQALWRVRPQLVVCGHIHDGRGAERVMWDLNCRNVAYQEESVVRWEDPGQGNNKTCLVDLTGKKAPSEGHHHHHH” as the sequence, how does the “soluble on expression in E. coli” value read?
Answer: soluble

Question: Which “soluble on expression in E. coli” value does the source give for “MGSSHHHHHHSSGLVPRGSHMIRYSEVTPYHVTSVWTKGVTPPANFTQGEDVFHAPYVANQGWYDITKTFNGKDDLLSGAATAGNMLHWWFDQNKDQIKRYLEEHPEKQKINFNGEQMFDVKEAIDTKNHQLDSKLFEYFKEKAFPYLSTKHLGVFPDHVIDMFINGYRLSLTNHGPTPVKEGSKDPRGGIFDAVFTRGDQSKLLTSRHDFKEKNLKEISDLIKKELTEGKALGLSHTYANVRINHVINLWGADFDSNGNLKAIYVTDSDSNASIGMKKYFVGVNSAGKVAISAKEIKEDNIGAQVLGLFTLSTGQDSWNQTN” here?
Answer: soluble

Question: For “MSSGLEDNLQLLGGNVTLLEQEAQKLANETKAGVYVVTTDSSTPASQMAKTYLADKVGAKNNGVVLVINMNLRKVYIWATGNLKYYLPSSRIEKTLDIVQPELTDNNYYQAVSGFFDQVSKYYQAGLEHHHHHH”, which “soluble on expression in E. coli” value is on record?
Answer: not soluble

Question: With “EAVREMVCEDDLSQTFITDGSLPACDITLEQAQNLARHVWGQGFAPPSFTDEFHVVRQQPLGAEGKHKKVWLQKDGCEFEAMFWRCSEDIPEYIRTVYRPVANEWRNNLELQLYIDYWEAA” as the sequence, how does the “soluble on expression in E. coli” value read?
Answer: not soluble

Question: Which “soluble on expression in E. coli” value does the source give for “MISPKKEITSSKYQKIAISVAQRIANGEYEVGEKLKSRTTIASTFNVSPETARKGLNILADLKILTLKHGSGAIVLSKERAIEFINQYESTHSIAVLKEKIRETINDQGKAMEKMAVLVNDFLMQSQSVSKQYPLAPYEIICNQDSEHFGKSIGVLNIWHQTGATIVAIEHAGQFIVSPGPYSVIEKGDHIYFVGDESVISRMKTFFNLRKGL” here?
Answer: not soluble

Question: With “MNQFYKRHFLRLLDFTPAEIIALLDLATELKKDKKSGCEQQKLVGKNIALIFEKDSTRTRCSFEVAAYDQGARVTYLGPGGSQIGHKESIKDTARVLGRMYDGIQYRGYGQRVVETLAEFAGVPVWNGLTDEFHPTQLLADLLTMREHLPNKSLNKMTLAYLGDTRNNMGNSLLEAAALVGMDLRLVAPKACWPEEAFVISCQALAQKTGGKITLTEDIAEGVNGADFLYTDVWVSMGEPKEVWQERINLLKPYQVNMRVLTLTGNPQVKFLHCLPAFHDDQTTIGKQMAEQYDLPGGMEVTEEVFESAHSIVFDQAENRLHTIKAVMVATMSKI” as the sequence, how does the “soluble on expression in E. coli” value read?
Answer: not soluble

Question: Which “soluble on expression in E. coli” value does the source give for “MSLDATYVETSTSKLGCRSAVADQVEKFQFGQYECDAPHKLYNSLIDNAKKFIESPDFILLGGDLIAHGLNVTKQMLIDNFNNITNPIEKKYPNTKIYITLGNNDFQKNYGSFDTDLTDFETVFEIFGKWMNTEQAETFKKGGYYYADFPSSNFRFLFLNTVIYSRKRTFNETLTDPYDQFAWIRKMYKDAVQKGYKVGIALHIPPGVVYTDNKVGWNLKYINTFAEIMKECDFSFIISGHSHTDMILPLYTPNSDTDNILYSLSAPSVSPTHYNNPGFRHYLLDQEIIKDFIQYYADIMLNPSELNWEIEYKFSEAYKTQNITRNSINDAVKWIRSTGEGQWRYRERVYSREGHHHHHH” here?
Answer: soluble
